Data published in the supplement of paper PMC9876800.

Tested on: peptide library, one residue held at a place counted from the S/T acceptor
Test: relative phosphorylation of the sub-library (ratio to the mean residue at this position); higher = residue favoured
Details: human
Outline: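 Purified recombinant kinases, either human or orthologue constructs, were incubated in 384-well plates with biotinylated degenerate peptide sub-libraries. Each sub-library fixed one residue at one position around a central Ser/Thr. Peptides at 50 μM and 50 μM ATP spiked with γ-32P-ATP were used for 90 min under kinase-specific conditions, and spots on streptavidin membranes were phosphorimaged and quantified by densitometry. Relative sub-library phosphorylation is expressed as a ratio to the mean residue at that position.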

Sequence of DAPK3, construct: aa1-404 (O43293 1-404, looked up): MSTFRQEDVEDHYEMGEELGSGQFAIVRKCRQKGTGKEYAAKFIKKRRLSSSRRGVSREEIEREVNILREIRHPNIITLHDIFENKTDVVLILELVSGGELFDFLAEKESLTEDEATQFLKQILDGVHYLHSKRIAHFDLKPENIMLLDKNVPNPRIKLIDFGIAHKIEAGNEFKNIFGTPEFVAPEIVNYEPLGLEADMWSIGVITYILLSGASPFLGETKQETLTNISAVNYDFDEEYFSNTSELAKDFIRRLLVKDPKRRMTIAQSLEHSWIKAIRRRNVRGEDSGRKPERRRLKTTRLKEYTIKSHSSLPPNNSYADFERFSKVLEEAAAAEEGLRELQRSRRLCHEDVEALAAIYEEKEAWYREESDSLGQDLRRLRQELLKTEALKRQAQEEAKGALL
Sequence of CHUK, construct: Full length (O15111 whole entry, looked up): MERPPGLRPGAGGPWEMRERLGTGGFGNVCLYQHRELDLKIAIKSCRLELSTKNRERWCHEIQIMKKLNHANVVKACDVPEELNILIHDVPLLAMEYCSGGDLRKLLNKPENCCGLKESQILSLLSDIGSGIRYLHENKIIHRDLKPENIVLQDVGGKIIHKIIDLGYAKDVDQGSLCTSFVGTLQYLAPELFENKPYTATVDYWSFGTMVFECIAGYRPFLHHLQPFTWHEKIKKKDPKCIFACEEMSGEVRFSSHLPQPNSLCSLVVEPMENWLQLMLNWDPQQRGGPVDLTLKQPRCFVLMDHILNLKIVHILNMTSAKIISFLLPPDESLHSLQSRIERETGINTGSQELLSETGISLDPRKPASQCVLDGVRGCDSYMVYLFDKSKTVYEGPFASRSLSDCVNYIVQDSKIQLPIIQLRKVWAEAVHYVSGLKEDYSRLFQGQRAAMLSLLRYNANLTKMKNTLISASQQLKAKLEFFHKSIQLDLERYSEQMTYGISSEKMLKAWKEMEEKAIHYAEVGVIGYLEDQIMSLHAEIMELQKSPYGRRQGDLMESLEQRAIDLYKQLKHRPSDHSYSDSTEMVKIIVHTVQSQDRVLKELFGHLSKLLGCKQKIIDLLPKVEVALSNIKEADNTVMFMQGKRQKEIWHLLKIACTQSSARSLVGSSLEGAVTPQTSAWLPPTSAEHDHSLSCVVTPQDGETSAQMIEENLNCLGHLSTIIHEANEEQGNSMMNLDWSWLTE
Sequence of CAMK2A, construct: Full length (Q9UQM7 whole entry, looked up): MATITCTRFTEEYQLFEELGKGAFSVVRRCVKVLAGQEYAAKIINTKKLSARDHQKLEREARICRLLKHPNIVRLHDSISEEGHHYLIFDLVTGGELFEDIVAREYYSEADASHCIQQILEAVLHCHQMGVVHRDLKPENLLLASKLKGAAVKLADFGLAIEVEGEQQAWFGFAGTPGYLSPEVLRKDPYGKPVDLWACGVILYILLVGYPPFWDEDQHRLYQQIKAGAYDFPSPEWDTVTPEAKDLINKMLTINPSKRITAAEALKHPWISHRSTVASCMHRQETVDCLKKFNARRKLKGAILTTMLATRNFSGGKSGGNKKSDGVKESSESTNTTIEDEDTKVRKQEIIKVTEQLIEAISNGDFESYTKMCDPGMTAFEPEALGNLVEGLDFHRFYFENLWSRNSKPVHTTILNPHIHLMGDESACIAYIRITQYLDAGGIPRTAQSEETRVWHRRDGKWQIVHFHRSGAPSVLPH

CAMK2A, construct: Full length (from UniProt Q9UQM7)
relative phosphorylation
Details	at +1	at +2	at +3	at +4	at -1	at -2	at -3	at -4	at -5
A fixed	0.609	0.742	0.885	0.931	0.81	1.37	0.689	1.08	0.921
D fixed	0.816	5.44	2.48	1.96	1.65	0.692	0.352	0.607	0.452
E fixed	1.32	2.31	2.59	1.81	1.16	0.765	0.464	0.985	0.461
F fixed	2.06	0.382	0.664	0.797	0.567	0.62	0.53	0.867	1.36
G fixed	0.59	0.713	1.11	1.11	0.789	1.02	0.591	0.941	0.758
H fixed	0.848	0.976	1.06	1.1	1.05	0.992	0.978	1.08	1.05
I fixed	1.09	0.334	0.431	0.511	0.374	0.31	0.369	0.656	0.866
K fixed	0.719	0.694	0.803	0.792	1.36	1.21	2.13	1.42	0.793
L fixed	1.09	0.331	0.642	0.513	0.629	0.4	0.378	0.733	1.79
M fixed	1.42	0.387	0.515	0.568	0.753	1.07	0.517	0.96	1.06
N fixed	0.955	1.02	1.06	0.977	1.65	1.09	0.706	0.689	0.618
P fixed	0.594	0.73	1.01	1.55	1.88	0.659	1.13	1.43	1.25
Q fixed	1.41	0.696	0.973	1	1.37	2.96	0.902	1.04	0.747
R fixed	0.735	0.781	0.762	0.557	1.02	1.47	5.38	1.4	1.27
V fixed	1.22	0.44	0.614	0.664	0.527	0.389	0.379	0.776	0.867
W fixed	0.527	0.452	0.634	1.15	0.5	1.21	0.837	1.31	1.59
Y fixed	1	0.574	0.774	1.01	0.905	0.765	0.665	1.02	1.15
pThr fixed	1.89	1.82	2.45	4.37	0.489	0.486	0.496	0.738	0.605
pTyr fixed	1.53	4.53	2.49	2.88	1.8	0.503	0.514	0.804	0.813

CHUK, construct: Full length (from UniProt O15111)
relative phosphorylation
Details	at +1	at +2	at +3	at +4	at -1	at -2	at -3	at -4	at -5
A fixed	0.486	0.954	0.902	0.978	0.716	1.1	0.777	1.15	1.29
D fixed	0.518	1.23	1.9	1.66	1.19	0.571	1.27	2.17	2.57
E fixed	0.61	1.26	2.02	1.55	1.11	1.1	1.53	2.15	2.29
F fixed	1.22	0.635	0.576	0.717	0.688	2	0.809	0.602	0.657
G fixed	1.18	1.55	1.48	1.43	0.615	0.548	1.12	1.55	1.4
H fixed	1.01	1.34	1.14	1.17	1.17	1.23	1.15	0.888	1.12
I fixed	1.94	0.78	0.548	0.769	0.346	0.874	0.365	0.49	0.395
K fixed	0.28	0.408	0.358	0.746	1.5	0.25	0.875	0.417	0.556
L fixed	1.68	0.726	0.688	0.724	0.702	1.59	0.408	0.552	0.548
M fixed	1.86	0.982	0.772	0.918	0.962	1.06	0.784	0.79	0.591
N fixed	0.931	1.9	1.28	1.17	1.58	1.35	1.69	1.17	1.22
P fixed	0.282	1.12	1.16	1.24	1.54	0.68	2.06	1.87	0.981
Q fixed	0.729	1.25	1.24	1.13	1.47	0.804	1.18	0.978	0.889
R fixed	0.162	0.27	0.26	0.177	0.641	0.176	0.728	0.314	0.476
V fixed	1.46	1.1	0.636	0.667	0.688	0.644	0.567	0.547	0.664
W fixed	1.29	0.756	1.04	0.978	0.784	0.663	0.704	0.693	0.791
Y fixed	1.36	0.75	1.01	0.977	1.31	2.36	0.991	0.68	0.562
pThr fixed	0.978	1.06	1.08	1.62	0.755	1.24	1.4	1.56	1.06
pTyr fixed	1.1	1.25	0.908	1.08	1.55	5.95	2.02	1.32	0.984

DAPK3, construct: aa1-404 (from UniProt O43293)
relative phosphorylation
Details	at +1	at +2	at +3	at +4	at -1	at -2	at -3	at -4	at -5
A fixed	0.877	0.903	0.724	0.839	0.73	1.06	0.654	1	0.953
D fixed	1.61	0.84	0.753	0.791	0.823	0.448	0.447	0.844	0.79
E fixed	1.69	0.976	0.719	0.706	0.601	0.398	0.393	0.85	0.666
F fixed	0.52	0.932	1.02	1.14	0.667	0.338	0.412	0.759	0.583
G fixed	1.15	0.661	0.89	0.939	0.888	0.74	0.636	0.947	1.03
H fixed	0.825	1.01	1.04	1.51	1.29	1.24	0.835	1.1	1.17
I fixed	0.786	0.873	1.95	0.95	0.58	0.313	0.311	0.645	0.73
K fixed	0.595	0.789	0.685	0.712	1.48	1.33	2.51	1.65	1.59
L fixed	0.707	1.44	1.63	0.902	0.946	0.361	0.365	0.677	0.927
M fixed	1.15	1.5	1.08	0.984	0.943	0.415	0.422	0.871	0.912
N fixed	1.33	1.03	0.776	1	1.69	0.952	0.548	0.85	0.891
P fixed	0.309	0.9	0.78	0.885	1.06	0.406	0.703	0.854	0.959
Q fixed	2.62	1.25	0.804	0.797	1.15	0.989	0.769	1.04	0.942
R fixed	0.811	1.13	0.942	1.03	1.71	6.46	6.61	2.25	2.36
V fixed	0.807	0.827	1.41	0.927	0.698	0.397	0.294	0.844	0.699
W fixed	0.638	0.941	0.984	1.61	0.753	0.755	0.634	1.02	0.776
Y fixed	0.582	1.01	0.808	1.28	1	0.401	0.462	0.803	1.01
pThr fixed	1.83	1.01	0.854	1.04	0.695	0.53	0.633	0.84	0.973
pTyr fixed	1.19	1.02	1.35	1.08	0.957	0.623	0.605	0.929	1.1
